Drawing on a protein production outcome set (Wang et al. 2014), this text covers protein production for 15 sequences.

A short description of the series: label from the status in PepcDB records.

Regarding “MKDLKDSLKILYQFKTDYLKVTLLLTILQAFVIGPFIYYFFFFILRVIGVPGITDANLGEVFSSPVAVIMLLILALLILLFVYYELGFFIMMAIYQLRGESYTVFKIIQRLNVKAKYFLSYQAIYFLLYFFLLLPIAGLSLPITITENLYLPHFITDELMKTTTGTWLYVIAIAIIFYISARLVFALPYFIEDKSLKISGAIRKSWKFSQKHLFFMLLKWVLIIVVIGFLVSIIATIIMLPLLLVEKITPGIAVVIAGITLTILQVIGFFAAGIFQGIIAQLLVKNAFAIEGQHAPVARNQFPHKKRFIIVAIIVFIIFSGFNIFTVNATLYEPNTKIIAHRGDTMNAVENTVEAIESAAKSGADYSEIDIQETKDHQFVVFHDMTLRRLAGSSKRVADMTLKELQQTKVKSGDYSSHIASFDEIIKTAKKNKIDLLVEVKLHGGESSDMVERLVTLLKKEKVTDKYLVQSLNQPVIEEIEKADPSLKTGIILALNIGNLPKTSADFIVLEDFSINKRLLTQAKQNDKMVFVWTVNKEKLMQMYLRKNVDGIITNYPKKAIELRESFNENDSLRSRIENRLGF”, the protein production entry is on record as “failed”.

For “MKDLLKWKFVETLDFLFDMDKYGRQMLFLQERGRMKLMEGFAVEFRGDGWDNDLASYCGKIVECSWDKEKKVWVSLRIRVDKSKPNGIGTGRSVIKCIEDDLTKEVLLKEIKEIILLP”, the protein production entry is “not failed”.

Consider “MKDLYQKFIYLIPSIIIFLITLSVTLKYSWPIGWDIFYHIHLSKVYMANGLTFFDPIYNAPGTIINYPPVFHLVILVLGYVLRMDLFDVARLMQPFLAALVALSVTVVASRLYEDKYVGIFAGLILFSGSIAMRLGSSLPENMALIFLPLSIFFFYEFFKDDKIIASFISGCLTGLVALIHPAATFCLVFAITFITAGLVITEFYFERDTGVIKRALKGYAILIGTAGLIASVWWLPAFYFKSLGHGGVATSLSVSRSLSILKYPDALGYFVLVLAVAGIIPAIRRFELRDRLILLWIISMFILSKSYYFGINVITYRVLIYIMIPLTILASSGLISVVEAIKNKNKDIARILLIALFIFAVFQAFNNLSSSKVADYGAMTAYGRINIAPPTDSEFELAKWFNSQNEDGKISLSNYFTGGFVMAYTNRPVDSLLYEKSEIPSRDELTEREISYLVFDKRLKASGDFKFNASSSFLFYNPNRINISDLEYPYLQKIYENQDFVVYRVL”, for which the protein production entry was “failed”.

As to “MKDTLKIGLLGLGTVGTGVLTLLKEHQEKISQVTGMNVVIEKAFVRNLETKQAQAEEYGLSLTTSIDDILEDKEIQIVVELMGTIEPAKTYIMKALEKGKHIVTANKDLLAQHGSELVALAQKHHCDLYYEASVAGGIPILRTIANSLAADNIQQVLGIVNGTTNYMLTQMVSADKSYEEALAEAQALGFAEADPTNDVDGIDAAYKMVILSQFAFGMNVSLPQVDIRGIRGLSLDDVAMAKQLGYEIKLIGSAEQNENSISVEVAPMLVNQKHPIASVRNEYNAVFIKSAGVGESMYYGPGAGAKPTATSVVSDLITIAKNIRLATTGHMFNSYQHKTQLTSSENVFGQYYFSLDVPDTPGQFLQLTQLMTKAEVSFDQLVQQKSDGQRARIVAITHQISKAQMQQVVIAIQNTEAFQLLNVMKVIGDE”, the protein production result is “failed”.

Turning to “MKEARKRMVKRAVQEIKDGMNVNLGIGMPTLVANEIPDGVHVMLQSENGLLGIGPYPLEGTEDADLINAGKETITEVTGASYFDSAESFAMIRGGHIDLAILGGMEVSEQGDLANWMIPGKMVKGMGGAMDLVNGAKRIVVIMEHVNKHGESKVKKTCSLPLTGQKVVHRLITDLAVFDFVNGRMTLTELQDGVTIEEVYEKTEADFAVSQSVLNS”, the protein production entry is “not failed”.

In the case of “MKEEAVRVIEEVLKQGRTAMVEYEAKQVLKAYGLPVPEEKLAKTLDEALEYAKEIGYPVVLKLMSPQILHKSDAKVVMLNIKNEEELKKKWEEIHENAKKYRPDAEILGVLVAPMLKPGREVIIGVTEDPQFGHAIMFGLGGIFVEILKDVTFRLVPITEKDARKMIQEIKAYPILAGARGEEPADIDAIVDMLLKVSKLVDDLKDYIKEMDLNPVFVYNKGEGAVIVDSRIILKPKD”, the protein production entry was “not failed”.

With “MKEGTGMVVRSSEITPERISNMRGGKGEVEMAHLLSKEAMHNKARLFARMKLPPGSSVGLHKHEGEFEIYYILLGEGVFHDNGKDVPIKAGDVCFTDSGESHSIENTGNTDLEFLAVIILL”, the protein production result is given as “not failed”.

Take “MKEIVERVKTKTKIPVYERSVENVLSAVLASDDIWRIVDLSEEPLPLVVAILESLNELGYVTFEDGVKLTEKGEELVAEYGIGKRYDFTCPHCQGKTVDLQAFADLLEQFREIVKDRPEPLHEFDQAYVTPETTVARVILMHTRGDLENKDIFVLGDDDLTSIALMLSGLPKRIAVLDIDERLTKFIEKAANEIGYEDIEIFTFDLRKPLPDYALHKFDTFITDPPETLEAIRAFVGRGIATLKGPRCAGYFGITRRESSLDKWREIQKLLLNEFNVVITDIIRNFNEYVNWGYAEETRAWKLIPIKKLPEYNWYKSYMFRIETLEGSRGYEDEIPEEDIYNDEESST”: the protein production entry was “not failed”.

Consider “MKEKEYLFSLDMKVRDYECDLQGVVNNSNYQRYMEHTRHEFWESLGDNFGQMHEKGLDAFVYKVTITFKQSLRSGDRFRSCLTCHKKGPKLIFMQDIIREDGVMAARGEVEVVAVQDGVLTRGEYFDVLMKDILSKTTKLEHHHHHH”, for which the protein production entry is given as “not failed”.

For the sequence “MKELNIALLGLGTVGSGVVKIIEENRQQIKDTINKDIVIKHILVRDKSKKRPLNISQYHLTEDINDILNDNSIDIVVEVMGGIEPTVDWLRTALKNKKHVITANKDLLAIHLKLLEDLAEENGVALKFEASVAGGIPIVNAINNGLNANNISKFMGIFNGTSNFILSKMTHEQTTFKDALEEAQRLGFAEADPTDDVEGVDAARKVVITSYLSFNQVIKLNDVKSVGISDITLADINAANSLNYKIKLIGKGTYENGYVNASVEPTLIHKNHQLAAVENEYNAIYVIGDAVGDTMFYGKGAGSLATGSAVVSDLLNVALFFESNLHTLPPHFELKTEETKEMMDGAEPVVIQEKSNYYIVISNNNKSLEKVEYDIKKKLPFHKSLQLVERDQDTYAIIVTGIETSPEKVLNQSGFNIKKVYPVEGV”, the protein production entry is on record as “failed”.

“MKELPRGDLLSPKTEEKFKLTNKAKIFFRPYMDPPEMPSSEYPLWLCTGRVLEHWHSGTMTMRVPELYRAVPEALCYMHPEDAKKLGVKQNEAVWVESRRGKVKARLEHHHHHH”: the protein production entry is reported as “not failed”.

Take “MKELSLFLQNRSVRRVGVFILIAFVLYLLRSQMNIILLTFIFSYLITRLENFILRRISIYRQIIVLLLYVLIAAVIIFVFVKYIPVLADQINQLVKFGNTFLTTDSNNDFINYIVSLANQFDIMKYTEQGVSMILTYLTNVGTVLMNVFIALMLSLFFSLGKEHLVSFTNQFSTSKIGFIYEEVKFFGSKFVATFGKVIEAQFIIALVNAILTTIALWILGFPQLMTLSIMVFLLGLIPVAGVIISLVPLTIIGYSIGGVEYIFYILVVVIIIHALESYVLNPKLMSAKTNLPVFYTFIILIFGEHFFGIWGLIVGIPVVMFFLDVLGVTNQEEIEQPKDTISHT”: the protein production result is “failed”.

Take “MKENLQDRLERENLKIASFGKRVLAFLIDDMVISLIVFIIFYDRLIQAKDLFETTQIVGNFYLGFILLHFSYQAIFTYLYGASLGKILCKIIILDENLLDKPNLIQSCIRSAVRQVSAMAFMLGFAWALSNDLRKAWEDYLARTIVVDVA”: the protein production entry was “failed”.

For the sequence “MKEQILEKLKTVKYPGFEKDIVSFNFVKDIKIQDDGVFIDIEIVSANPEVANEIRKNTIEALSSLALKNIELNIITPKIPEEKSNSRSGKNIAPQVKNFIMVSSGKGGVGKSTTTVNLAISMAKMGKRVGILDADIYGPNIPRMLGETKTQPEVVGQRLKPILTHGVYMMSMGVLIEEGQGLMWRGAMIMKAIEQLLADVIWPELDVLFLDMPPGTGDAQITSAQSIPIAAGVCVSTPQTVSLDDSKRALDMFNKLHIPIAGVIENMSGFLCPDNGKEYDIFGKGTAEDMAKAYKSEVLAQIPIEMIVREGGDEGKPVSFYHPESVSSKRYLMAAEKIWSFIEKINNEGGADNSAIQPVMNGKSACSHLEHHHHHH”, the protein production entry is reported as “not failed”.

On to “MKETHNSQDRLAYLKQQLPADITRSVIDTLKEDLGGTLDPAADITASLIPADRISTATIITREAGVFCGQLWADEVFKQLGGQVSIEWHVQDGDTLTPNQTLCTLTGPARILLTGERNAMNFIQTLSGCATATARYVQELKGTQCRLLDTRKTIPGLRSALKYAVACGGGYNHRIGVFDAYLIKENHIIACGGIRQAISTAKQLNPGKPVEVETETLAELEEAISAGADIIMLDNFSLEMMREAVKINAGRAALENSGNITLDNLKECAETGVDYISVGALTKHLKALDLSMRFKS”, for which the protein production result is on record as “not failed”.
